Data from patent publication US20140366224A1 (CONSEJO SUPERIOR DE INVESTIGACIONES CIENTIFICAS, published 2014).

T1: IYO fused to split YFP (nYFP or cYFP) (Arabidopsis thaliana, UniProt Q8GYU3 1-1465)
T1 construct: BiFC construct expressed in Nicotiana benthamiana leaf epidermal cells; The position of the YFP half varied between combinations, so the order of the parts is not fixed; also called split YFP fused to IYO; not shown: nYFP or cYFP half of split YFP, fused at the N- or C-terminus (different combinations were used)
T1 sequence: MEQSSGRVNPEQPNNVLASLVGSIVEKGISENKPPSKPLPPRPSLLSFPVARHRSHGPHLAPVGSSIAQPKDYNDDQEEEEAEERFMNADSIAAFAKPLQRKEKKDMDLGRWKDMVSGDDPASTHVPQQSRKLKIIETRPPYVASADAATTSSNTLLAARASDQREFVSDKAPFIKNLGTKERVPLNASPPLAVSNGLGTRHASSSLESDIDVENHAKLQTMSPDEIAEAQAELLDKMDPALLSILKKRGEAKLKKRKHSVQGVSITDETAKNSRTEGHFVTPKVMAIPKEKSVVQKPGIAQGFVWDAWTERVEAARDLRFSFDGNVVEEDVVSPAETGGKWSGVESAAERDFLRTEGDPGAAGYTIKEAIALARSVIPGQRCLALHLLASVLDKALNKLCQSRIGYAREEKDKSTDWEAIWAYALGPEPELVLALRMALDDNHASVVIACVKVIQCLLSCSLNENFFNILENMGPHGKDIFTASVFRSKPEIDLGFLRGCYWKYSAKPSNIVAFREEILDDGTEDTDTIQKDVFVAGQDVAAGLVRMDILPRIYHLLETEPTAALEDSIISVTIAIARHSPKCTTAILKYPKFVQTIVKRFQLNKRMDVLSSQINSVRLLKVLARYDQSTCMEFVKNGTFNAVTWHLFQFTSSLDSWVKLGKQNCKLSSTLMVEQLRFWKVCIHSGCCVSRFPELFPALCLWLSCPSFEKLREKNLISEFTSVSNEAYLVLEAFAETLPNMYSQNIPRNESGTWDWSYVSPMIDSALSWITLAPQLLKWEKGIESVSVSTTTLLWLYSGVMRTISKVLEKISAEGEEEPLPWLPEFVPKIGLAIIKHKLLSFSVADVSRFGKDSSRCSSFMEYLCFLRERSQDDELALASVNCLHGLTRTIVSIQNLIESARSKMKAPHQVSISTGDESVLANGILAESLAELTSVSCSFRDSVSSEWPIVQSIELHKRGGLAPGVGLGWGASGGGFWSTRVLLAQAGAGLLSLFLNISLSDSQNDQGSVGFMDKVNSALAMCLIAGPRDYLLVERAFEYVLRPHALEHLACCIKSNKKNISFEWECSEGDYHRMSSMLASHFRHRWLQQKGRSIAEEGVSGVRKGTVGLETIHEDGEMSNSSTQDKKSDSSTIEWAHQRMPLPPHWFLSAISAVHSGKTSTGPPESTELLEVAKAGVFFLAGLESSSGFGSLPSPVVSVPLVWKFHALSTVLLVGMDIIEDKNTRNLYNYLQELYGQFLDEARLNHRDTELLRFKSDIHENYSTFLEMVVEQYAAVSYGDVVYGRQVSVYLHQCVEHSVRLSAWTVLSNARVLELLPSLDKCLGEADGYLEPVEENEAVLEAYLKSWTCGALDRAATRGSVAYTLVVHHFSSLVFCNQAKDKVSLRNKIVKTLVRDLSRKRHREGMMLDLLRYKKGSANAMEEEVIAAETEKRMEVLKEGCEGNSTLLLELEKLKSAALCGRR

B1: AtRTR1 (At5g26760) full-length, fused to split YFP (nYFP or cYFP) (other)
chain: MAKDNEAIAINDAVHKLQLYMLENTTDQNQLFAARKLMSRSDYEDVVTERAIAKLCGYTLCQRFLPSDVSRRGKYRISLKDHKVYDLQETSKFCSAGCLIDSKTFSGSLQEARTLEFDSVKLNEILDLFGDSLEVKGSLDVNKDLDLSKLMIKENFGVRGEELSLEKWMGPSNAVEGYVPFDRSKSSNDSKATTQSNQEKHEMDFTSTVIMPDVNSVSKLPPQTKQASTVVESVDGKGKTVLKEQTVVPPTKKVSRFRREKEKEKKTFGVDGMGCAQEKTTVLPRKILSFCNEIEKDFKNFGFDEMGLASSAMMSDGYGVEYSVSKQPQCSMEDSLSCKLKGDLQTLDGKNTLSGSSSGSNTKGSKTKPEKSRKKIISVEYHANSYEDGEEILAAESYERHKAQDVCSSSEIVTKSCLKISGSKKLSRSVTWADQNDGRGDLCEVRNNDNAAGPSLSSNDIEDVNSLSRLALAEALATALSQAAEAVSSGNSDASDATAKAGIILLPSTHQLDEEVTEEHSEEEMTEEEPTLLKWPNKPGIPDSDLFDRDQSWFDGPPEGFNLTLSNFAVMWDSLFGWVSSSSLAYIYGKEESAHEEFLLVNGKEYPRRIIMVDGLSSEIKQTIAGCLARALPRVVTHLRLPIAISELEKGLGSLLETMSLTGAVPSFRVKEWLVIVLLFLDALSVSRIPRIAPYISNRDKILEGSGIGNEEYETMKDILLPLGRVPQFATRSGA
notes: Wild-type full-length AtRTR1 in BiFC in Nicotiana benthamiana leaves; The position of the YFP half varied; also called split YFP fused to AtRTR1; not shown: nYFP or cYFP half of split YFP, fused at the N- or C-terminus (different combinations were used)
B2: full-length AtRTR1 C56A/C61A (other, not shown: large carriers)
chain: MAKDNEAIAINDAVHKLQLYMLENTTDQNQLFAARKLMSRSDYEDVVTERAIAKLAGYTLAQRFLPSDVSRRGKYRISLKDHKVYDLQETSKFCSAGCLIDSKTFSGSLQEARTLEFDSVKLNEILDLFGDSLEVKGSLDVNKDLDLSKLMIKENFGVRGEELSLEKWMGPSNAVEGYVPFDRSKSSNDSKATTQSNQEKHEMDFTSTVIMPDVNSVSKLPPQTKQASTVVESVDGKGKTVLKEQTVVPPTKKVSRFRREKEKEKKTFGVDGMGCAQEKTTVLPRKILSFCNEIEKDFKNFGFDEMGLASSAMMSDGYGVEYSVSKQPQCSMEDSLSCKLKGDLQTLDGKNTLSGSSSGSNTKGSKTKPEKSRKKIISVEYHANSYEDGEEILAAESYERHKAQDVCSSSEIVTKSCLKISGSKKLSRSVTWADQNDGRGDLCEVRNNDNAAGPSLSSNDIEDVNSLSRLALAEALATALSQAAEAVSSGNSDASDATAKAGIILLPSTHQLDEEVTEEHSEEEMTEEEPTLLKWPNKPGIPDSDLFDRDQSWFDGPPEGFNLTLSNFAVMWDSLFGWVSSSSLAYIYGKEESAHEEFLLVNGKEYPRRIIMVDGLSSEIKQTIAGCLARALPRVVTHLRLPIAISELEKGLGSLLETMSLTGAVPSFRVKEWLVIVLLFLDALSVSRIPRIAPYISNRDKILEGSGIGNEEYETMKDILLPLGRVPQFATRSGA
notes: The putative zinc-coordinating cysteines are substituted by alanine
B3: full-length AtRTR1 C94A/C98A (other, not shown: large carriers)
chain: MAKDNEAIAINDAVHKLQLYMLENTTDQNQLFAARKLMSRSDYEDVVTERAIAKLCGYTLCQRFLPSDVSRRGKYRISLKDHKVYDLQETSKFASAGALIDSKTFSGSLQEARTLEFDSVKLNEILDLFGDSLEVKGSLDVNKDLDLSKLMIKENFGVRGEELSLEKWMGPSNAVEGYVPFDRSKSSNDSKATTQSNQEKHEMDFTSTVIMPDVNSVSKLPPQTKQASTVVESVDGKGKTVLKEQTVVPPTKKVSRFRREKEKEKKTFGVDGMGCAQEKTTVLPRKILSFCNEIEKDFKNFGFDEMGLASSAMMSDGYGVEYSVSKQPQCSMEDSLSCKLKGDLQTLDGKNTLSGSSSGSNTKGSKTKPEKSRKKIISVEYHANSYEDGEEILAAESYERHKAQDVCSSSEIVTKSCLKISGSKKLSRSVTWADQNDGRGDLCEVRNNDNAAGPSLSSNDIEDVNSLSRLALAEALATALSQAAEAVSSGNSDASDATAKAGIILLPSTHQLDEEVTEEHSEEEMTEEEPTLLKWPNKPGIPDSDLFDRDQSWFDGPPEGFNLTLSNFAVMWDSLFGWVSSSSLAYIYGKEESAHEEFLLVNGKEYPRRIIMVDGLSSEIKQTIAGCLARALPRVVTHLRLPIAISELEKGLGSLLETMSLTGAVPSFRVKEWLVIVLLFLDALSVSRIPRIAPYISNRDKILEGSGIGNEEYETMKDILLPLGRVPQFATRSGA
notes: as for B2
B4: C-terminal half of AtRTR1 (aa 305-735) (other, not shown: large carriers)
chain: EMGLASSAMMSDGYGVEYSVSKQPQCSMEDSLSCKLKGDLQTLDGKNTLSGSSSGSNTKGSKTKPEKSRKKIISVEYHANSYEDGEEILAAESYERHKAQDVCSSSEIVTKSCLKISGSKKLSRSVTWADQNDGRGDLCEVRNNDNAAGPSLSSNDIEDVNSLSRLALAEALATALSQAAEAVSSGNSDASDATAKAGIILLPSTHQLDEEVTEEHSEEEMTEEEPTLLKWPNKPGIPDSDLFDRDQSWFDGPPEGFNLTLSNFAVMWDSLFGWVSSSSLAYIYGKEESAHEEFLLVNGKEYPRRIIMVDGLSSEIKQTIAGCLARALPRVVTHLRLPIAISELEKGLGSLLETMSLTGAVPSFRVKEWLVIVLLFLDALSVSRIPRIAPYISNRDKILEGSGIGNEEYETMKDILLPLGRVPQFATRSGA
notes: also called truncated C-terminal half of AtRTR1; C-terminal half of RTR1

Experiments:
[1] = biological target: T1, IYO fused to split YFP (nYFP or cYFP); test: BiFC, split YFP in Nicotiana benthamiana leaves
Excerpt: Although the bulk of AtRTR1 is present in the cytosol, we found high levels of nuclear fluorescence reconstitution when split YFP fused to IYO and AtRTR1 was expressed in Nicotiana benthamiana leaves (FIGS. 12-14). This confirms that IYO and AtRTR1 interact physically, and that they do so in the nucleus. […] To test this, Applicants analyzed the subcellular distribution of AtRTR1 in the presence or absence of co-expressed IYO. These experiments confirmed that co-expressed IYO increases the accumulation of AtRTR1 in the nucleus.
(§1) Applicants tested for the in vivo interaction between IYO and AtRTR1 through a bimolecular fluorescence complementation assay in epidermal cells from Nicotiana benthamiana leaves.

[2] = biological target: T1, IYO fused to split YFP (nYFP or cYFP); test: BiFC (split YFP) in Nicotiana benthamiana leaf cells
Excerpt: as §1

[3] = biological target: T1, IYO fused to split YFP (nYFP or cYFP); test: BiFC context, truncated AtRTR1
Excerpt: as §1

Binder | binding result [2] | also measured
B1 | – | binding result [1]: binds
B2 | no binding | –
B3 | no binding | –
B4 | – | binding result [3]: binds
